# Results published in US20250059258A1.
# Substitutions are numbered along the chain they refer to.
# B1: affinity ligand SEQ ID NO: 94 (designed binder)
# chain: MGGGGSAAAGDEAVRWEIQGAAYAARGDYDRAIEYYERALELDPNNAWAWWELGVAYAARGDYDRAIEYYERALELDPDDAHVWFRLGWAYAVRGDYDRAIEYYERALELDPEDELARRILEDARRARQGQAGQGGGSGLNDIFEAQKIEWHECHHHHHH
# modifications: biotinylated (AviTag system)
# B2: affinity ligand SEQ ID NO: 80 (designed binder)
# chain: MGGGGSAAAGDEADRWAALGAAYAARGDYDRAIEYYQRALELDPNNAWAWWDLGVAYAARGDYDRAIEYYERALELDPDDAHAWFRLGWAYAARGDYDRAIEYYERALELDPEDETARDVLEGARRARQGQAGQGGGSGLNDIFEAQKIEWHECHHHHHH
# modifications: biotinylated (AviTag system)
# B3: affinity ligand SEQ ID NO: 84 (designed binder)
# chain: MGGGGSAAAGDEGGRWEGQGAAYAARGDYDRAIEYYERALELDPNNAWAWWDLGVAYAARGDYDRAIEYYERALELDPDDATAWSRLGHAYAARGDYDRAIEYYERALELDPEDETARYLLEHARRARQGQAGQGGGSGLNDIFEAQKIEWHECHHHHHH
# modifications: biotinylated (AviTag system)
# B4: affinity ligand SEQ ID NO: 88 (designed binder)
# chain: B3 chain with G13A, G14Q, R15C, G18N, D52E
# modifications: biotinylated (AviTag system)
# B5: affinity ligand SEQ ID NO: 91 (designed binder)
# chain: B3 chain with G13A, G14Q, G18N, E37G, D52E, D114N
# modifications: biotinylated (AviTag system)
# B6: affinity ligand SEQ ID NO: 87 (designed binder)
# chain: B3 chain with G13A, G14Q, R15H, G18N, D52E, A83V
# modifications: biotinylated (AviTag system)
# B7: affinity ligand SEQ ID NO: 86 (designed binder)
# chain: B3 chain with G13A, G14Q, G18N, Y35C, R38S, D52E, T82I
# modifications: biotinylated (AviTag system)
# B8: affinity ligand SEQ ID NO: 93 (designed binder)
# chain: B3 chain with G13A, G14Q, G18N, D52E, Y63F, A83V, E113V
# modifications: biotinylated (AviTag system)
# B9: affinity ligand SEQ ID NO: 79 (designed binder)
# chain: MGGGGSAAAGDEADRWADLGAAYAARGDYDRAIEYYQRALELDPNNAWAWWDLGVAYAARGDYDRAIEYYQRALELDPNNAVAWRRLGHAYAARGDYDRAIEYYQRALELDPNNELAREQLERARRARHGQAGQGGGSGLNDIFEAQKIEWHECHHHHHH
# modifications: biotinylated (AviTag system)
# B10: affinity ligand SEQ ID NO: 81 (designed binder)
# chain: B9 chain with D14E, A17Y, D52E, H89I, L116V, E119D, Q120A, R123Y, H129R
# modifications: biotinylated (AviTag system)
# B11: affinity ligand SEQ ID NO: 85 (designed binder)
# chain: B9 chain with D14E, A17D, D18Y, V55L, R85F, H89W, E119S, Q120E, R123N, H129R
# modifications: biotinylated (AviTag system)
# B12: affinity ligand SEQ ID NO: 82 (designed binder)
# chain: B9 chain with D14G, A17Y, D52E, R85A, H89I, L116V, E119D, Q120A, R123Y, H129R
# modifications: biotinylated (AviTag system)
# B13: affinity ligand SEQ ID NO: 83 (designed binder)
# chain: B9 chain with E122G, H129R
# modifications: biotinylated (AviTag system)
# B14: affinity ligand SEQ ID NO: 157 (designed binder)
# chain: MGLAEAAAREAAARAADEAERWYDLGAAYAARGDYDRAIEYYQRALEHDPNDAWAWWELGVAYAARGDYDRAIEYYQRALELDTNNAVAWARLGIAYAARGDYDRAIEYYQRALELDPNNEVARGALEYARRARRHHHHHH
# modifications: biotinylated (AviTag system)
# B15: affinity ligand SEQ ID NO: 156 (designed binder)
# chain: MAWAEFRQRLAAIRTRLEALGGSEAELAAFEREIAAFESELQAYAGAGNPEVEALRREAAAIRDELQAYRHNDEAERWYDLGAAYAARGDYDRAIEYYQRALEHDPNDAWAWWELGVAYAARGDYDRAIEYYQRALELDTNNAVAWARLGIAYAARGDYDRAIEYYQRALELDPNNEVARGALEYARRARRHHHHHH
# modifications: biotinylated (AviTag system)
# B16: affinity ligand SEQ ID NO: 161 (designed binder)
# chain: B15 chain with H104L, T140L, G181D
# modifications: biotinylated (AviTag system)
# B17: affinity ligand SEQ ID NO: 159 (designed binder)
# chain: MGHHHHHHDEAERWYDLGAAYAARGDYDRAIEYYQRALEHDPNDAWAWWELGVAYAARGDYDRAIEYYQRALELDTNNAVAWARLGIAYAARGDYDRAIEYYQRALELDPNNEVARGALEYARRARRC
# modifications: biotinylated (AviTag system)
# B18: affinity ligand SEQ ID NO: 160 (designed binder)
# chain: B17 chain with H40L, T76L, G117D
# modifications: biotinylated (AviTag system)
# B19: affinity ligand SEQ ID NO: 154 (designed binder)
# chain: MGDEAERWYDLGAAYAARGDYDRAIEYYQRALELDPNDAWAWWELGVAYAARGDYDRAIEYYQRALELDPNNAVAWARLGIAYAARGDYDRAIEYYQRALELDPNNEVARDALEYARRARRCHHHHHH
# modifications: biotinylated (AviTag system)
# B20: affinity ligand SEQ ID NO: 155 (designed binder)
# chain: B19 chain with L34H, P70T, D111G
# modifications: biotinylated (AviTag system)
# B21: affinity ligand SEQ ID NO: 158 (designed binder)
# chain: B19 chain with P70L
# modifications: biotinylated (AviTag system)
# B22: affinity ligand SEQ ID NO: 170 (designed binder)
# chain: MGDEADRWYDQGAAYAARGDYDRAIEYYERALELDPNDAWAWWELGVAYAARGDYDRAIEYYQRALELDPNDAVAWARLGHAYAARGDYDRAIEYYQRALELDPNNEAARSNLEYARRAAACGLNDIFEAQKIEWHEHHHHHH
# modifications: biotinylated (AviTag system)
# B23: affinity ligand SEQ ID NO: 174 (designed binder)
# chain: B22 chain with D38N
# modifications: biotinylated (AviTag system)
# B24: affinity ligand SEQ ID NO: 172 (designed binder)
# chain: B22 chain with E29Q, D38N, A77S, Y95H, A108V, S111H, N112L, Y115V
# modifications: biotinylated (AviTag system)
# B25: affinity ligand SEQ ID NO: 171 (designed binder)
# chain: B22 chain with D10Y, D38N
# modifications: biotinylated (AviTag system)
# B26: affinity ligand SEQ ID NO: 173 (designed binder)
# chain: B22 chain with E29Q, D38N, A77S, A108V, S111H, N112L, Y115V
# modifications: biotinylated (AviTag system)
# B27: affinity ligand SEQ ID NO: 165 (designed binder)
# chain: MDEAAHWEVQGAAYAARGDYDRAIEYYERALELDPNNAWAWEHLGWAYAARGDFDRAIEYYERALELDPDDAHAWFRLGFAYAARGDYDRAIEYYERALELDPEDELARAELESARRARQGQAGQGWAEFRQRLAAIRTRLEALGGSEAELAAFEREIAAFESELQAYAGAGNPEVEALRREAAAIRDELQAYRHNHHHHHHC
# modifications: biotinylated (AviTag system)
# B28: affinity ligand SEQ ID NO: 166 (designed binder)
# chain: B27 chain with H6R, A30V, N37D, F54Y, L67V, I92M
# modifications: biotinylated (AviTag system)
# B29: affinity ligand SEQ ID NO: 168 (designed binder)
# chain: B27 chain with A4V, H6R, D19G, F54Y, A74E
# modifications: biotinylated (AviTag system)
# B30: affinity ligand SEQ ID NO: 167 (designed binder)
# chain: B27 chain with H6R, F54Y, A74S, A84V
# modifications: biotinylated (AviTag system)
# B31: affinity ligand SEQ ID NO: 164 (designed binder)
# chain: MGDEAERWYDLGAAYAARGDYDRAIEYYQRALELDPNDAWAWWELGVAYAARGDYDRAIEYYQRALELDLNNAVAWARLGIAYAARGDYDRAIEYYQRALELDPNNEVARDALEYARRARRC
# modifications: biotinylated (AviTag system)
# B32: affinity ligand SEQ ID NO: 163 (designed binder)
# chain: MGHHHHHHDEAERWYDLGAAYAARGDYDRAIEYYQRALELDPNDAWAWWELGVAYAARGDYDRAIEYYQRALELDLNNAVAWARLGIAYAARGDYDRAIEYYQRALELDPNNEVARDALEYARRARRAPKC
# modifications: biotinylated (AviTag system)
# Biological target: Tremfya Fab with a lambda light chain and binding specificity for IL23 (from the monoclonal antibody guselkumab)
# Assay: BLI (ForteBio), biotinylated ligand on sensor, 1:1 fit
row,Binder,Kd
1,B1,3 nM
2,B2,4 nM
3,B3,18 nM
4,B4,10 nM
5,B5,11 nM
6,B6,10 nM
7,B7,8 nM
8,B8,4 nM
9,B9,28 nM
10,B10,8 nM
11,B11,26 nM
12,B12,6 nM
13,B13,8 nM

# Biological target: Herceptin Fab with a kappa light chain and binding specificity for Her2/neu (from the monoclonal antibody trastuzumab)
# Assay: as above
row,Binder,Kd
1,B1,14 nM
2,B2,7 nM
3,B3,32 nM
4,B4,32 nM
5,B5,46 nM
6,B6,84 nM
7,B7,28 nM
8,B8,15 nM
9,B9,67 nM
10,B10,31 nM
11,B11,53 nM
12,B12,23 nM
13,B13,22 nM

# Biological target: dimeric human IgG-lambda (Southern Biotech, Birmingham AL)
# Assay: as above
row,Binder,Kd
1,B1,< 1 nM
2,B2,< 1 nM
3,B3,< 1 nM
4,B4,< 1 nM
5,B5,< 1 nM
6,B6,< 1 nM
7,B7,< 1 nM
8,B8,< 1 nM
9,B9,< 1 nM
10,B10,< 1 nM
11,B11,< 1 nM
12,B12,< 1 nM
13,B13,< 1 nM

# Biological target: Ajovy (IgG2 monoclonal antibody)
# Assay: BLI, biotinylated ligand on sensor; 'Binding affinity (nM)'
row,Binder,Kd
1,B14,270 nM
2,B15,224 nM
3,B16,654 nM
4,B17,436 nM
5,B18,543 nM
6,B19,92 nM
7,B20,117 nM
8,B21,282 nM

# Biological target: Praluent (IgG1 monoclonal antibody)
# Assay: as above
row,Binder,Kd
1,B22,< 1 nM
2,B23,< 1 nM
3,B24,< 1 nM
4,B25,< 1 nM
5,B26,< 1 nM
6,B27,< 1 nM
7,B28,< 1 nM
8,B29,< 1 nM
9,B30,< 1 nM
10,B31,< 1 nM
11,B14,< 1 nM
12,B15,< 1 nM
13,B16,< 1 nM
14,B17,< 1 nM
15,B18,< 1 nM
16,B32,< 1 nM
17,B19,< 1 nM
18,B20,< 1 nM
19,B21,< 1 nM

# Biological target: Dupixent (IgG4 monoclonal antibody)
# Assay: as above
row,Binder,Kd
1,B22,28 nM
2,B23,221 nM
3,B24,215 nM
4,B25,242 nM
5,B26,95 nM
6,B27,31 nM
7,B28,120 nM
8,B29,232 nM
9,B30,31 nM
10,B31,82 nM
11,B14,8 nM
12,B15,7 nM
13,B16,31 nM
14,B17,9 nM
15,B18,24 nM
16,B32,13 nM
17,B19,13 nM
18,B20,32 nM
19,B21,176 nM
